No end group written: not given here. *: point of attachment. Succinimide(1-Et,3-yl) = CCN1C(=O)CC(*)C1=O
B1: Cys-variant of stresscopin peptide with N-Ethylsuccinimide (NES) reactive group, SEQ ID NO: 52 (peptide)
peptide: TKFTLSLDVPTNIMNLLFC(Succinimide(1-Et,3-yl))IAKAKNLRAQAAANAHLMAQI-NH2
modifications: N-terminus assumed
SMILES: CC[C@H](C)[C@H](NC(=O)[C@H](CCC(N)=O)NC(=O)[C@H](C)NC(=O)[C@H](CCSC)NC(=O)[C@H](CC(C)C)NC(=O)[C@H](Cc1c[nH]cn1)NC(=O)[C@H](C)NC(=O)[C@H](CC(N)=O)NC(=O)[C@H](C)NC(=O)[C@H](C)NC(=O)[C@H](C)NC(=O)[C@H](CCC(N)=O)NC(=O)[C@H](C)NC(=O)[C@H](CCCNC(=N)N)NC(=O)[C@H](CC(C)C)NC(=O)[C@H](CC(N)=O)NC(=O)[C@H](CCCCN)NC(=O)[C@H](C)NC(=O)[C@H](CCCCN)NC(=O)[C@H](C)NC(=O)[C@@H](NC(=O)[C@H](CSC1CC(=O)N(CC)C1=O)NC(=O)[C@H](Cc1ccccc1)NC(=O)[C@H](CC(C)C)NC(=O)[C@H](CC(C)C)NC(=O)[C@H](CC(N)=O)NC(=O)[C@H](CCSC)NC(=O)[C@@H](NC(=O)[C@H](CC(N)=O)NC(=O)[C@@H](NC(=O)[C@@H]1CCCN1C(=O)[C@@H](NC(=O)[C@H](CC(=O)O)NC(=O)[C@H](CC(C)C)NC(=O)[C@H](CO)NC(=O)[C@H](CC(C)C)NC(=O)[C@@H](NC(=O)[C@H](Cc1ccccc1)NC(=O)[C@H](CCCCN)NC(=O)[C@@H](N)[C@@H](C)O)[C@@H](C)O)C(C)C)[C@@H](C)O)[C@@H](C)CC)[C@@H](C)CC)C(N)=O
B2: Cys-variant of stresscopin peptide with N-Ethylsuccinimide (NES) reactive group, SEQ ID NO: 48 (peptide)
peptide: TKFTLSLDVPTNIMNLLFNIAKAKNC(Succinimide(1-Et,3-yl))RAQAAANAHLMAQI-NH2
modifications: N-terminus assumed
SMILES: CC[C@H](C)[C@H](NC(=O)[C@H](CCC(N)=O)NC(=O)[C@H](C)NC(=O)[C@H](CCSC)NC(=O)[C@H](CC(C)C)NC(=O)[C@H](Cc1c[nH]cn1)NC(=O)[C@H](C)NC(=O)[C@H](CC(N)=O)NC(=O)[C@H](C)NC(=O)[C@H](C)NC(=O)[C@H](C)NC(=O)[C@H](CCC(N)=O)NC(=O)[C@H](C)NC(=O)[C@H](CCCNC(=N)N)NC(=O)[C@H](CSC1CC(=O)N(CC)C1=O)NC(=O)[C@H](CC(N)=O)NC(=O)[C@H](CCCCN)NC(=O)[C@H](C)NC(=O)[C@H](CCCCN)NC(=O)[C@H](C)NC(=O)[C@@H](NC(=O)[C@H](CC(N)=O)NC(=O)[C@H](Cc1ccccc1)NC(=O)[C@H](CC(C)C)NC(=O)[C@H](CC(C)C)NC(=O)[C@H](CC(N)=O)NC(=O)[C@H](CCSC)NC(=O)[C@@H](NC(=O)[C@H](CC(N)=O)NC(=O)[C@@H](NC(=O)[C@@H]1CCCN1C(=O)[C@@H](NC(=O)[C@H](CC(=O)O)NC(=O)[C@H](CC(C)C)NC(=O)[C@H](CO)NC(=O)[C@H](CC(C)C)NC(=O)[C@@H](NC(=O)[C@H](Cc1ccccc1)NC(=O)[C@H](CCCCN)NC(=O)[C@@H](N)[C@@H](C)O)[C@@H](C)O)C(C)C)[C@@H](C)O)[C@@H](C)CC)[C@@H](C)CC)C(N)=O
B3: Cys-variant of stresscopin peptide with N-Ethylsuccinimide (NES) reactive group, SEQ ID NO: 50 (peptide)
peptide: TKFTLSLDVPTNIMNLLFNIAKAC(Succinimide(1-Et,3-yl))NLRAQAAANAHLMAQI-NH2
modifications: N-terminus assumed
SMILES: CC[C@H](C)[C@H](NC(=O)[C@H](CCC(N)=O)NC(=O)[C@H](C)NC(=O)[C@H](CCSC)NC(=O)[C@H](CC(C)C)NC(=O)[C@H](Cc1c[nH]cn1)NC(=O)[C@H](C)NC(=O)[C@H](CC(N)=O)NC(=O)[C@H](C)NC(=O)[C@H](C)NC(=O)[C@H](C)NC(=O)[C@H](CCC(N)=O)NC(=O)[C@H](C)NC(=O)[C@H](CCCNC(=N)N)NC(=O)[C@H](CC(C)C)NC(=O)[C@H](CC(N)=O)NC(=O)[C@H](CSC1CC(=O)N(CC)C1=O)NC(=O)[C@H](C)NC(=O)[C@H](CCCCN)NC(=O)[C@H](C)NC(=O)[C@@H](NC(=O)[C@H](CC(N)=O)NC(=O)[C@H](Cc1ccccc1)NC(=O)[C@H](CC(C)C)NC(=O)[C@H](CC(C)C)NC(=O)[C@H](CC(N)=O)NC(=O)[C@H](CCSC)NC(=O)[C@@H](NC(=O)[C@H](CC(N)=O)NC(=O)[C@@H](NC(=O)[C@@H]1CCCN1C(=O)[C@@H](NC(=O)[C@H](CC(=O)O)NC(=O)[C@H](CC(C)C)NC(=O)[C@H](CO)NC(=O)[C@H](CC(C)C)NC(=O)[C@@H](NC(=O)[C@H](Cc1ccccc1)NC(=O)[C@H](CCCCN)NC(=O)[C@@H](N)[C@@H](C)O)[C@@H](C)O)C(C)C)[C@@H](C)O)[C@@H](C)CC)[C@@H](C)CC)C(N)=O
B4: Cys-variant of stresscopin peptide with N-Ethylsuccinimide (NES) reactive group, SEQ ID NO: 51 (peptide)
peptide: TKFTLSLDVPTNIMNLLFNC(Succinimide(1-Et,3-yl))AKAKNLRAQAAANAHLMAQI-NH2
modifications: N-terminus assumed
SMILES: CC[C@H](C)[C@H](NC(=O)[C@H](CCC(N)=O)NC(=O)[C@H](C)NC(=O)[C@H](CCSC)NC(=O)[C@H](CC(C)C)NC(=O)[C@H](Cc1c[nH]cn1)NC(=O)[C@H](C)NC(=O)[C@H](CC(N)=O)NC(=O)[C@H](C)NC(=O)[C@H](C)NC(=O)[C@H](C)NC(=O)[C@H](CCC(N)=O)NC(=O)[C@H](C)NC(=O)[C@H](CCCNC(=N)N)NC(=O)[C@H](CC(C)C)NC(=O)[C@H](CC(N)=O)NC(=O)[C@H](CCCCN)NC(=O)[C@H](C)NC(=O)[C@H](CCCCN)NC(=O)[C@H](C)NC(=O)[C@H](CSC1CC(=O)N(CC)C1=O)NC(=O)[C@H](CC(N)=O)NC(=O)[C@H](Cc1ccccc1)NC(=O)[C@H](CC(C)C)NC(=O)[C@H](CC(C)C)NC(=O)[C@H](CC(N)=O)NC(=O)[C@H](CCSC)NC(=O)[C@@H](NC(=O)[C@H](CC(N)=O)NC(=O)[C@@H](NC(=O)[C@@H]1CCCN1C(=O)[C@@H](NC(=O)[C@H](CC(=O)O)NC(=O)[C@H](CC(C)C)NC(=O)[C@H](CO)NC(=O)[C@H](CC(C)C)NC(=O)[C@@H](NC(=O)[C@H](Cc1ccccc1)NC(=O)[C@H](CCCCN)NC(=O)[C@@H](N)[C@@H](C)O)[C@@H](C)O)C(C)C)[C@@H](C)O)[C@@H](C)CC)C(N)=O
B5: Cys-variant of stresscopin peptide with N-Ethylsuccinimide (NES) reactive group, SEQ ID NO: 49 (peptide)
peptide: TKFTLSLDVPTNIMNLLFNIAKAKC(Succinimide(1-Et,3-yl))LRAQAAANAHLMAQI-NH2
modifications: N-terminus assumed
SMILES: CC[C@H](C)[C@H](NC(=O)[C@H](CCC(N)=O)NC(=O)[C@H](C)NC(=O)[C@H](CCSC)NC(=O)[C@H](CC(C)C)NC(=O)[C@H](Cc1c[nH]cn1)NC(=O)[C@H](C)NC(=O)[C@H](CC(N)=O)NC(=O)[C@H](C)NC(=O)[C@H](C)NC(=O)[C@H](C)NC(=O)[C@H](CCC(N)=O)NC(=O)[C@H](C)NC(=O)[C@H](CCCNC(=N)N)NC(=O)[C@H](CC(C)C)NC(=O)[C@H](CSC1CC(=O)N(CC)C1=O)NC(=O)[C@H](CCCCN)NC(=O)[C@H](C)NC(=O)[C@H](CCCCN)NC(=O)[C@H](C)NC(=O)[C@@H](NC(=O)[C@H](CC(N)=O)NC(=O)[C@H](Cc1ccccc1)NC(=O)[C@H](CC(C)C)NC(=O)[C@H](CC(C)C)NC(=O)[C@H](CC(N)=O)NC(=O)[C@H](CCSC)NC(=O)[C@@H](NC(=O)[C@H](CC(N)=O)NC(=O)[C@@H](NC(=O)[C@@H]1CCCN1C(=O)[C@@H](NC(=O)[C@H](CC(=O)O)NC(=O)[C@H](CC(C)C)NC(=O)[C@H](CO)NC(=O)[C@H](CC(C)C)NC(=O)[C@@H](NC(=O)[C@H](Cc1ccccc1)NC(=O)[C@H](CCCCN)NC(=O)[C@@H](N)[C@@H](C)O)[C@@H](C)O)C(C)C)[C@@H](C)O)[C@@H](C)CC)[C@@H](C)CC)C(N)=O
B6: Cys-variant of stresscopin peptide with N-Ethylsuccinimide (NES) reactive group, SEQ ID NO: 47 (peptide)
peptide: TKFTLSLDVPTNIMNLLFNIAKAKNLRC(Succinimide(1-Et,3-yl))QAAANAHLMAQI-NH2
modifications: N-terminus assumed
SMILES: CC[C@H](C)[C@H](NC(=O)[C@H](CCC(N)=O)NC(=O)[C@H](C)NC(=O)[C@H](CCSC)NC(=O)[C@H](CC(C)C)NC(=O)[C@H](Cc1c[nH]cn1)NC(=O)[C@H](C)NC(=O)[C@H](CC(N)=O)NC(=O)[C@H](C)NC(=O)[C@H](C)NC(=O)[C@H](C)NC(=O)[C@H](CCC(N)=O)NC(=O)[C@H](CSC1CC(=O)N(CC)C1=O)NC(=O)[C@H](CCCNC(=N)N)NC(=O)[C@H](CC(C)C)NC(=O)[C@H](CC(N)=O)NC(=O)[C@H](CCCCN)NC(=O)[C@H](C)NC(=O)[C@H](CCCCN)NC(=O)[C@H](C)NC(=O)[C@@H](NC(=O)[C@H](CC(N)=O)NC(=O)[C@H](Cc1ccccc1)NC(=O)[C@H](CC(C)C)NC(=O)[C@H](CC(C)C)NC(=O)[C@H](CC(N)=O)NC(=O)[C@H](CCSC)NC(=O)[C@@H](NC(=O)[C@H](CC(N)=O)NC(=O)[C@@H](NC(=O)[C@@H]1CCCN1C(=O)[C@@H](NC(=O)[C@H](CC(=O)O)NC(=O)[C@H](CC(C)C)NC(=O)[C@H](CO)NC(=O)[C@H](CC(C)C)NC(=O)[C@@H](NC(=O)[C@H](Cc1ccccc1)NC(=O)[C@H](CCCCN)NC(=O)[C@@H](N)[C@@H](C)O)[C@@H](C)O)C(C)C)[C@@H](C)O)[C@@H](C)CC)[C@@H](C)CC)C(N)=O

target: T1, human CRH receptor type 2 (human, UniProt Q13324 1-411); test: cell-based or functional assay
T1 sequence (looked up): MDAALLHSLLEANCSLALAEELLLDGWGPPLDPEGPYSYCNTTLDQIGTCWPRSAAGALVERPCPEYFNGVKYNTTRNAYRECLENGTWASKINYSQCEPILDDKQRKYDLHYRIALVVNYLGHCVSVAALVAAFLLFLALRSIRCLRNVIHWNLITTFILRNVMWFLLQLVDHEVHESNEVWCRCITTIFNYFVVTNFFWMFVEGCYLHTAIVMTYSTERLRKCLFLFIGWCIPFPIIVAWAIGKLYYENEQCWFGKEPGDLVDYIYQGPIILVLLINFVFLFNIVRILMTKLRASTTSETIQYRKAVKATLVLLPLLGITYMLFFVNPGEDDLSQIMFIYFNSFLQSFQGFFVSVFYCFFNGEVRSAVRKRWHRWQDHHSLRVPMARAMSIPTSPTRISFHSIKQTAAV

| Binder | Log DR against h-SCP, cAMP [log10 ratio] | pA50, cAMP |
| --- | --- | --- |
| B1 | 0.05 | 9.42 -log M |
| TKFTLSLDVPTNIMNLLFNIAKAKNLRCQAAANAHLMAQI (NES-PEG MW80000, branched, on Cys 28; C-terminal amide) [Pegylated Cys-variant CRHR2 peptide agonist (NES-PEG MW80000 & BRANCHED), SEQ ID NO: 101] | 1.9 | 7.84 -log M |
| B2 | 0.03 | 9.44 -log M |
| B3 | -0.01 | 9.48 -log M |
| B4 | 0.68 | 8.79 -log M |
| B5 | 0.11 | 9.36 -log M |
| B6 | -0.03 | 9.5 -log M |

Reference: patent publication US20100130424A1 (Janssen / Centocor, published 2010)
